The target in data set [1] is T1, Lc-PepA (Lactococcus lactis, UniProt Q9CIH3).
T1 construct: full length (355 aa, 1068 bp gene), C-terminal His6-tag kept, pET20b(+), E. coli BL21(DE3), Ni-NTA purified
T1 sequence (Q9CIH3 1-355): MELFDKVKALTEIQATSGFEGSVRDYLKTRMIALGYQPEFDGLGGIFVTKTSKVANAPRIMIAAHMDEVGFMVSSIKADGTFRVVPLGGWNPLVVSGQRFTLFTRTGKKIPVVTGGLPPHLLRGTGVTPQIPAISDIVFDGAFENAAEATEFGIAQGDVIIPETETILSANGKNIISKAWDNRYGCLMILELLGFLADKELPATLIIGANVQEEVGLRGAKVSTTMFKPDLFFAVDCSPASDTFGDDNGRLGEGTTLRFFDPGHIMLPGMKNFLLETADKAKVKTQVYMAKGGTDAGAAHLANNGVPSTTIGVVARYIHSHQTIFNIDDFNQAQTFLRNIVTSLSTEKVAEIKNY
Description: product inhibition, p-nitroaniline release at […] nm. Type of data set: biochemical.

Data set [2] deals with Glutamyl (aspartyl)-specific aminopeptidase A (PepA) from Lactobacillus delbrueckii ssp. lactis DSM 20072 (Lactobacillus delbrueckii ssp. lactis DSM 20072). The experiment in a line: SEC; Superdex 200 10/300 GL, 30 uL at 1 mg/mL, 0.75 mL/min, 10 mM Na/K-phosphate pH 6.0 with 150 mM NaCl; native mass against calibration proteins, divided by the monomer's mass. Background: Size exclusion chromatography separates by hydrodynamic size, large species first.

Data set [3] concerns the target T1, Lc-PepA. Description: p-nitroaniline release at […] nm, Michaelis-Menten nonlinear fit. In kind it is biochemical. The following applies: substrate inhibition constant, apparent; 50 mM Na/K-phosphate pH 8.0, 65 °C, 0.3125 mM CoCl2.
Data set [4] deals with Glutamyl (aspartyl)-specific aminopeptidase A (PepA) from Lactococcus lactis ssp. lactis DSM 20481 (Lactococcus lactis ssp. lactis DSM 20481) (UniProt Q48677). The experiment in a line: SEC; Superdex 200 10/300 GL, 30 uL at 1 mg/mL, 0.75 mL/min, 10 mM Na/K-phosphate pH 8.0 with 150 mM NaCl; native mass against calibration proteins, divided by the monomer's mass.
Another data set addresses T2, Lb-PepA (Lactobacillus delbrueckii, UniProt F0HXE4).
T2 construct: full length (361 aa, 1086 bp gene), C-terminal His6-tag kept, pET20b(+), E. coli BL21(DE3), Ni-NTA purified
T2 sequence (F0HXE4 1-361): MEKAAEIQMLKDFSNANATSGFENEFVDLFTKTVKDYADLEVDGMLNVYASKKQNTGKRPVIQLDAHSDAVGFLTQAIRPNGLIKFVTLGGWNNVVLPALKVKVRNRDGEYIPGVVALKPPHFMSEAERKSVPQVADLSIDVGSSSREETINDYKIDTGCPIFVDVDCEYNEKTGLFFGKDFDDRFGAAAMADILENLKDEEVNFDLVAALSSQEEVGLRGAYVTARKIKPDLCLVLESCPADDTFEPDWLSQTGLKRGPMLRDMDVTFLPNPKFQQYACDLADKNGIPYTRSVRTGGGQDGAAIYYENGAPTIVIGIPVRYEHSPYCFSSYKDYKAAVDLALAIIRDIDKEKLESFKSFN
The experiment in a line: p-nitroaniline release at […] nm, Michaelis-Menten nonlinear fit. In kind it is biochemical. To be noted: substrate inhibition constant, apparent; 50 mM Na/K-phosphate pH 6.0, 60 °C, 0.625 mM CoCl2.

In data set [5] the target is T1, Lc-PepA. Described as above. To be noted: substrate inhibition constant, apparent; 50 mM Na/K-phosphate pH 8.0, 65 °C, 0.3125 mM CoCl2. Type of data set: biochemical. The source holds these as a separate data set.
Substrate in data set [6]: N[C@@H](CC(=O)O)C(=O)Nc1ccc([N+](=O)[O-])cc1
The experiment in a line: purified protein. Type of data set: biochemical, Lactococcus lactis. The following applies: apparent, 50 mM Na/K-phosphate pH 8.0, 65 °C, 0.3125 mM CoCl2, about 5% DMSO, fit with substrate inhibition.

Substrate in data set [7]: N[C@@H](CCC(=O)O)C(=O)Nc1ccc([N+](=O)[O-])cc1
The experiment in a line: purified protein. In kind it is biochemical, Lactococcus lactis. To be noted: apparent, 50 mM Na/K-phosphate pH 8.0, 65 °C, 0.3125 mM CoCl2, about 5% DMSO, fit with substrate inhibition.

Substrate in data set [8]: N[C@@H](CC(=O)O)C(=O)Nc1ccc([N+](=O)[O-])cc1
Description: purified protein. In kind it is biochemical, Lactobacillus delbrueckii. The following applies: apparent, 50 mM Na/K-phosphate pH 6.0, 60 °C, 0.625 mM CoCl2, about 5% DMSO, fit with substrate inhibition.

Substrate in data set [9]: N[C@@H](CCC(=O)O)C(=O)Nc1ccc([N+](=O)[O-])cc1
The experiment in a line: purified protein. In kind it is biochemical, Lactobacillus delbrueckii. The following applies: apparent, 50 mM Na/K-phosphate pH 6.0, 60 °C, 0.625 mM CoCl2, about 5% DMSO, substrate tested only up to 7.3 mM (solubility).

The source of these data is publication PMC4803204, “A Novel Glutamyl (Aspartyl)-Specific Aminopeptidase A from Lactobacillus delbrueckii with Promising Properties for Application” (PLoS ONE, 2016).

Molecule `N[C@@H](CCC(=O)O)C(=O)O` [L-Glu] displayed an activity at 10000 µM on Lc-PepA [1] of 82.3%.

In the case of `N[C@@H](CC(=O)O)C(=O)O` [L-Asp], the activity at 10000 µM on Lc-PepA [1] is 78.2%.

With “Glutamyl (aspartyl)-specific aminopeptidase A (PepA) from Lactobacillus delbrueckii ssp. lactis DSM 20072 (enzyme)”, the stoichiometry N (commonly a count of units in the complex or per binding partner) in data set [2] came to 12.

As to `N[C@@H](CCC(=O)O)C(=O)Nc1ccc([N+](=O)[O-])cc1` [H-Glu-pNA], the “H-Glu-pNA / KIS [mM]” value at Lc-PepA [3] came out at 3.61 mM.

Consider “Glutamyl (aspartyl)-specific aminopeptidase A (PepA) from Lactococcus lactis ssp. lactis DSM 20481 (from UniProt Q48677 1-355) (enzyme)”, for which the stoichiometry N in [4] was found to be 12.

With `N[C@@H](CC(=O)O)C(=O)Nc1ccc([N+](=O)[O-])cc1` [H-Asp-pNA], the “H-Asp-pNA / KIS [mM]” value on Lb-PepA is 6.66 mM; at Lc-PepA [5], 41.9 mM.

B1: Lc-PepA (Lactococcus lactis subsp. lactis Il1403) (protein)
chain: MELFDKVKALTEIQATSGFEGSVRDYLKTRMIALGYQPEFDGLGGIFVTKTSKVANAPRIMIAAHMDEVGFMVSSIKADGTFRVVPLGGWNPLVVSGQRFTLFTRTGKKIPVVTGGLPPHLLRGTGVTPQIPAISDIVFDGAFENAAEATEFGIAQGDVIIPETETILSANGKNIISKAWDNRYGCLMILELLGFLADKELPATLIIGANVQEEVGLRGAKVSTTMFKPDLFFAVDCSPASDTFGDDNGRLGEGTTLRFFDPGHIMLPGMKNFLLETADKAKVKTQVYMAKGGTDAGAAHLANNGVPSTTIGVVARYIHSHQTIFNIDDFNQAQTFLRNIVTSLSTEKVAEIKNY
notes: full length (355 aa, 1068 bp gene), C-terminal His6-tag kept, pET20b(+), E. coli BL21(DE3), Ni-NTA purified
For the molecule B1, the Km (commonly the substrate concentration at which the rate is half of its maximum) was found to be 340 µM in “purified protein [6]” and 190 µM in “purified protein [7]”.

B2: Lb-PepA (Lactobacillus delbrueckii subsp. lactis DSM 20072) (protein)
chain: MEKAAEIQMLKDFSNANATSGFENEFVDLFTKTVKDYADLEVDGMLNVYASKKQNTGKRPVIQLDAHSDAVGFLTQAIRPNGLIKFVTLGGWNNVVLPALKVKVRNRDGEYIPGVVALKPPHFMSEAERKSVPQVADLSIDVGSSSREETINDYKIDTGCPIFVDVDCEYNEKTGLFFGKDFDDRFGAAAMADILENLKDEEVNFDLVAALSSQEEVGLRGAYVTARKIKPDLCLVLESCPADDTFEPDWLSQTGLKRGPMLRDMDVTFLPNPKFQQYACDLADKNGIPYTRSVRTGGGQDGAAIYYENGAPTIVIGIPVRYEHSPYCFSSYKDYKAAVDLALAIIRDIDKEKLESFKSFN
notes: full length (361 aa, 1086 bp gene), C-terminal His6-tag kept, pET20b(+), E. coli BL21(DE3), Ni-NTA purified
As to B2, the Km in “purified protein [8]” came to 1210 µM; in the data set “purified protein [9]”, 25200 µM.
